Patent US10792367B2, “Conjugates comprising an GLP-1/glucagon dual agonist, a linker and hyaluronic acid” (SANOFI, dated 2020)
Starred links: 1 amine or outer side, 2 acyl side, 3 side chain; linkers in the order of their positions; H or OH if unused. Non-standard residues stand in square brackets, D forms with d. Groups on a side chain read outwards from the residue. No end group written: not given here. *: point of attachment. γGlu = O=C(O)[C@H](CCC(=O)[*:2])N[*:1]; Stearoyl = CCCCCCCCCCCCCCCCCC(=O)*

Target: human GLP-1 receptor (human, UniProt P43220)
Assay: cell-based or functional assay

B1: peptide of SEQ ID NO: 6 (GLP-1/Glucagon agonist, exendin-4 derivative) (peptide)
peptide: H[dS]QGTFTSDLSKQK([γGlu-Stearoyl])DEQLAKDFIEWLKAGGPSSGAPPPS-NH2
EC50 hGLP-1R (cAMP response, HTRF): 5.1 pM
